Data as given in patent US20200317791A1 (Janssen / Centocor, published 2020).
Substitutions are numbered along the chain they refer to. Read-outs that look alike come from different tables or passages of the source.

What was measured:
[1] = molecular target: T1, CW6W36 (rhHLA-Cw6/ADAMTSL5) (human); assay: SPR ProteOn XPR36, captured mAb
T1 construct: also called CW6W36.002; rHLA-Cw6/ADAMTSL5
Procedure: (§1) Anti-HLA-Cw6 mAbs were captured at ligand densities ranging from 100 to 200 response units. […] All analyses were conducted in PBST at 100 μL/min flow rate with association and dissociation times of 180 and 900 seconds, respectively. […] Analyte raw data was double referenced by subtraction of the blank surface response at “interspots” (to correct for refractive index changes and any non-specific interactions with the chip surface) and of the buffer blank response (to correct for any baseline drift resulting from mAb dissociation over time). Referenced data were globally fit to a 1:1 simple Langmuir binding model. Kinetic parameters were calculated for each mAb/antigen combination or interaction using Bio-Rad ProteOn Manager software (version 3.1.0.6) with parameter (kon, koff, Rmax) scope and type set to “Grouped” and “Fitted,” respectively.

CW6W32 (rhHLA-Cw6/TRAT) [2] = molecular target: T2, CW6W32 (rhHLA-Cw6/TRAT) (human); assay: SPR ProteOn XPR36, captured mAb
T2 construct: also called CW6W32.009; rHLA-Cw6/TRAT
Procedure: as §1

[3] = molecular target: T3, CW6W3.ECO.PP.002/.003 (rhHLA-Cw6/ARF) (human); assay: SPR ProteOn XPR36, captured mAb; valid kinetic fit;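 for Kd: Anti-HLA-Cw6 mAbs captured at 100–200 RU, antigen flowed in PBST, 180 s association and 900 s dissociation, double-referenced sensorgrams globally fit to a 1:1 Langmuir model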;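 for koff: Anti-HLA-Cw6 mAbs captured at 100–200 RU, antigen flowed in PBST, 180 s association and 900 s dissociation, double-referenced sensorgrams globally fit to a 1:1 Langmuir model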
T3 construct: also called rhHLA-Cw6/ARFN; rHLA-Cw6/ARFN
Procedure: as §1

A24_A*24:02 [4] = molecular target: T4, A24_A*24:02 (human, UniProt A*24:02); assay: LABScreen beads
T4 construct: on LABScreen bead; also called HLA-A*24:02 (LABScreen class I bead)
T4 heavy chain: not shown

[5] = molecular target: T1, CW6W36 (rhHLA-Cw6/ADAMTSL5); assay: SPR ProteOn XPR36, captured mAb; valid kinetic fit, range of two replicates (second end)
Procedure: as §1

[6] = molecular target: T3, CW6W3.ECO.PP.002/.003 (rhHLA-Cw6/ARF); assay: SPR ProteOn XPR36, captured mAb
Procedure: as §1

CW6W32 (rhHLA-Cw6/TRAT) [7] = molecular target: T2, CW6W32 (rhHLA-Cw6/TRAT); assay: SPR ProteOn XPR36, captured mAb; valid kinetic fit;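 for Kd: Anti-HLA-Cw6 mAbs captured at 100–200 RU, antigen flowed in PBST, 180 s association and 900 s dissociation, double-referenced sensorgrams globally fit to a 1:1 Langmuir model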;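 for koff: Anti-HLA-Cw6 mAbs captured at 100–200 RU, antigen flowed in PBST, 180 s association and 900 s dissociation, double-referenced sensorgrams globally fit to a 1:1 Langmuir model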
Procedure: as §1

[8] = molecular target: T1, CW6W36 (rhHLA-Cw6/ADAMTSL5); assay: SPR ProteOn XPR36, captured mAb; valid kinetic fit, range of two replicates
Procedure: as §1

[9] = molecular target: T1, CW6W36 (rhHLA-Cw6/ADAMTSL5); assay: SPR Biacore 8K, captured mAb; Acceptable fit
Source text: To further characterize the ability of the antibodies to differentiate between class I MHC molecules.
A24_A*24:02 [10] = molecular target: T4, A24_A*24:02; assay: LABScreen beads
CW6W54.001 = assay: SPR Biacore 8K, captured mAb; Kinetic fit not valid
CW6W53.001 = assay: as above
CW6W51.001 = assay: as above
CW6W32 (rhHLA-Cw6/TRAT) [11] = molecular target: T2, CW6W32 (rhHLA-Cw6/TRAT); assay: as above
CW6W35.001 = assay: as above

B1: CW6B188 (antibody, V domains shown)
VH: EVQLVESGGGLVQPGGSLRLSCAASGFTFTNYWMTWVRQAPGKGLEWVANIKQSGNEKYYVDSVKGRFTISRDNAKNSLYLQMNSLRAEDTAVYYCARTLYEWELEPFDYWGQGTLVTVSS
VL: SYVLTQPPSVSVAPGQTARITCGGNRIGSKNLHWYQQKPGQAPVLVVYDDSDRPSGIPERFSGSNSGSTATLTISRVEAGDEADYYCQVWDSSRDHVVFGGGTKLTVL
notes: also called CW6B188.001; CW6M188 (DNA ID)
Question: Which results are given for B1?
Answer: binding result [1]: binds; binding result (CW6W32 (rhHLA-Cw6/TRAT) [2]): binds; Kd [3]: 0.12 nM; koff [3]: 0.000574 s⁻¹; kon [3]: 5.66e+06 M⁻¹ s⁻¹; binding result (A24_A*24:02 [4]): no binding (tested: 10 µg/ml)

B2: CW6B130 (antibody, V domains shown)
VH: QLQLQESGPGLVKPSETLSLTCTVSGASISSINYYWGWIRQPPGKGLEWIGSFYYSGNTYYNPSLKSRVTISVDTSKNYFSLKLNSVTAADTAVYYCAREYYDSSGYYPFEPWGQGTLVTVSS
VL: B1 VL with N25D, R26N, K30E, N31S, L32V, S51T, N65K, S68T, R76W, R94S
notes: also called CW6B130.001; CW6M130 (DNA ID)
Question: How did the Kd [5] turn out when B2 was run?
Answer: The Kd was 0.0713 nM.

Question: What about the koff [5] of the same binder?
Answer: Its koff is 0.00097 s⁻¹.

Question: What about the kon [5] of the same binder?
Answer: Its kon is 1.75e+07 M⁻¹ s⁻¹.

Question: Does B2 bind [6]?
Answer: Result: binds

Question: And the Kd (CW6W32 (rhHLA-Cw6/TRAT) [7])?
Answer: Its Kd is 0.27 nM.

Question: And the koff (CW6W32 (rhHLA-Cw6/TRAT) [7])?
Answer: Its koff is 0.00272 s⁻¹.

Question: And the kon (CW6W32 (rhHLA-Cw6/TRAT) [7])?
Answer: The kon was 1.03e+07 M⁻¹ s⁻¹.

Question: What about the Kd [8] of the same binder?
Answer: Its Kd is 0.0586 nM.

Question: What about the koff [8] of the same binder?
Answer: Its koff is 0.00124 s⁻¹.

Question: And the kon [8]?
Answer: The kon was 1.66e+07 M⁻¹ s⁻¹.

Question: What about the Kd [9] of the same binder?
Answer: Its Kd is 0.272 nM.

Question: And the koff [9]?
Answer: The koff was 0.00184 s⁻¹.

Question: And the kon [9]?
Answer: Its kon is 6.77e+06 M⁻¹ s⁻¹.

Question: Does B2 bind (A24_A*24:02 [10])?
Answer: Result: no binding (tested: 10 µg/ml)

Question: And the Kd (CW6W54.001)?
Answer: Its Kd is 0.0828 nM.

Question: And the koff (CW6W54.001)?
Answer: The koff was 0.00204 s⁻¹.

Question: And the kon (CW6W54.001)?
Answer: The kon was 2.47e+07 M⁻¹ s⁻¹.

Question: And the Kd (CW6W53.001)?
Answer: The Kd was 0.205 nM.

Question: What about the koff (CW6W53.001) of the same binder?
Answer: Its koff is 0.0054 s⁻¹.

Question: What about the kon (CW6W53.001) of the same binder?
Answer: Its kon is 2.63e+07 M⁻¹ s⁻¹.

Question: And the Kd (CW6W51.001)?
Answer: Its Kd is 0.571 nM.

Question: And the koff (CW6W51.001)?
Answer: Its koff is 0.000389 s⁻¹.

Question: And the kon (CW6W51.001)?
Answer: The kon was 681000 M⁻¹ s⁻¹.

Question: What about the Kd (CW6W32 (rhHLA-Cw6/TRAT) [11]) of the same binder?
Answer: Its Kd is 0.622 nM.

Question: And the koff (CW6W32 (rhHLA-Cw6/TRAT) [11])?
Answer: The koff was 0.00509 s⁻¹.

Question: And the kon (CW6W32 (rhHLA-Cw6/TRAT) [11])?
Answer: Its kon is 8.2e+06 M⁻¹ s⁻¹.

Question: And the Kd (CW6W35.001)?
Answer: The Kd was 6.04 nM.

Question: What about the koff (CW6W35.001) of the same binder?
Answer: The koff was 0.0101 s⁻¹.

Question: And the kon (CW6W35.001)?
Answer: The kon was 1.67e+06 M⁻¹ s⁻¹.
